Data as given in patent US5688671A, “Mutant aspartokinase gene” (Ajinomoto Co., Inc., priority 1993, dated 1997).
Substitutions are numbered along the chain they refer to.

How the values were obtained:
[1] = test system: aspartokinase; test: Aspartokinase (AK) activity of cell-disrupted solutions of Corynebacterium glutamicum strains, with and without L-lysine/L-threonine; assay type: biochemical, Corynebacterium glutamicum (Brevibacterium lactofermentum); conditions: plasmids introduced into AJ12036; for 2 mM Lys + Thr (desensitization degree of inhibition): 2 mM lysine + threonine; for 5 mM Lys (desensitization degree of inhibition): lysine 5 mM; for Specific activity: Table 5; for 5 mM Thr (desensitization degree of inhibition): threonine 5 mM
Description: When a wild type strain is used as a donor for the DNA fragment containing the AK gene, a DNA fragment containing a wild type AK gene can be obtained. The DNA fragment containing the gene for AK in which synergistic feedback inhibition by L-lysine and L-threonine is substantially desensitized can be obtained by using a mutant strain in which synergistic feedback inhibition on the AK activity by L-lysine and L-threonine is substantially desensitized. The mutant strain can be obtained, for example, from a group of cells subjected to an ordinary mutation treatment, ultraviolet light irradiation, or a treatment with a mutating agent such as N-methyl-N'-nitro-N-nitrosoguanidine (NTG). The AK activity can be measured by using a method described in Miyajima, R. et al., The Journal of Biochemistry (1968), 63(2), 139-148.
Strains were prepared by introducing the wild type AK plasmid p399AKYB and the mutant AK plasmid p399AK9B respectively into AJ12036 strain (FERM P-7559) as a wild type strain of Corynebacterium glutamicum (Brevibacterium lactofermentum). The genes were introduced into Corynebacterium by means of an electric pulse method. The aspartokinase activity was measured for Corynebacterium glutamicum (Brevibacterium lactofermentum) AJ12036 strain as a host, AJ12690 strain harboring the wild type AK plasmid, and AJ12691 (FERM P12918) strain harboring the mutant AK plasmid. The activity was measured in accordance with an ordinary method (see Miyajima, R. et al., The Journal of Biochemistry (1968) 63(2), 139-148). […]
Strains were prepared by introducing 8 kinds of the plasmids shown in Table 3 into AJ12036 strain (FERM P-7559) as a wild type strain of Corynebacterium glutamicum (Brevibacterium lactofermentum) in the same manner as Example 3. The AK activity was measured for each of the strains. […] The desensitization degree of inhibition by lysine and/or threonine was similar to those in Example 6.

[2] = test system: Corynebacterium glutamicum (Brevibacterium lactofermentum) AJ12036; test: L-lysine productivity evaluated by cultivation in production medium; assay type: cell-based; conditions: plasmids introduced into AJ12036; cultivation as in Example 3
Description: The lysine productivity was evaluated by cultivation for the wild type strain AJ12036, the wild type AK plasmid-harboring strain AJ12690, and the mutant AK plasmid-harboring strain AJ12691 (FERM P-12918). The evaluation by cultivation was performed by inoculating the strains to a production medium (containing glucose 100 g, (NH4)2 SO4 55 g, KH2 PO4 1 g, MgSO4.7H2 O 1 g, soybean protein acid hydrolysate "Mamenou" (product of Ajinomoto Co., Ltd., trade name) 50 ml, FeSO4.7H2 O 10 mg, MnSO4.4H2 O 10 mg, nicotinic acid amide 5 mg, and CaCO3 50 g in 1 l of pure water, pH 8.0), and cultivating them with reciprocatory shaking at 31.5° C. for 72 hours. […] The plasmid-holding ratio upon completion of the cultivation was measured by using an index of chloramphenicol resistance as a drug resistance marker of the plasmid.
The lysine productivity was further evaluated by cultivation for the 9 kinds of these strains by using a method similar to that in Example 3.

[3] = test system: AK; test: AK enzyme activity and inhibition by lysine/threonine in cell-free extracts of AK-deficient Escherichia coli Gif106M1 transformants; assay type: biochemical, Corynebacterium glutamicum; conditions: for Specific activity: Table 4; for 5 mM Lys + Thr (degree of desensitization of inhibition, activity-holding ratio): lysine 5 mM+threonine 5 mM; for 5 mM Lys + Thr (degree of desensitization of inhibition, activity-holding ratio) / 5 mM Lys (degree of desensitization of inhibition, activity-holding ratio) / 5 mM Thr (degree of desensitization of inhibition, activity-holding ratio): activity without addition = 100%, E. coli Gif106M1 extracts; for 5 mM Lys (degree of desensitization of inhibition, activity-holding ratio): lysine 5 mM; for 5 mM Thr (degree of desensitization of inhibition, activity-holding ratio): threonine 5 mM
Description: Bacteriol. 112, 84-92 (1972), Theze, J. et al., J. […] It is known that most of genes of bacteria belonging to the genus Corynebacterium are expressed in Escherichia coli. In addition, the AK gene was ligated at a position downstream from lac promoter on pHSG399. Thus it was postulated that the gene could be expressed in Escherichia coli. […] Thus it was confirmed that AK from the bacteria belonging to the genus Corynebacterium was expressed and operated in cells of Escherichia coli. Subsequently, cell-free extracts were prepared from bacterial cells, and the enzyme activity of AK was measured. Upon measurement of the enzyme activity of AK, various concentrations of lysine and threonine were added to enzyme reaction solutions to investigate the degree of inhibition (FIG. 2). […] (Ki value: 0.4 mM→5.0 mM). […] Cell-free extracts were prepared, and enzymes were analyzed.

[4] = test system: AK; test: Thermal stability of AK, treatment at 55° C. for 1.5 hour; assay type: biochemical, Corynebacterium glutamicum; conditions: FIG. 6
Description: The activity-holding ratio after a treatment at 55° C. for 90 minutes is indicated by %.
Thermal stability was investigated as an index of stability of the enzyme structure constructed by the introduction of mutation. The treatment condition was set at 55° C. for 1.5 hour in which the activity of the wild type AK was about 80%.

[5] = E. coli Gif106M1 cell-free extracts

B1: Cys: mutant aspartokinase 279 Ala→Cys, plasmid p399AKAC (p399AKACB) (protein, UniProt P26512 1-421, looked up, variant A279C)
Aspartokinase: MALVVQKYGGSSLESAERIRNVAERIVATKKAGNDVVVVCSAMGDTTDELLELAAAVNPVPPAREMDMLLTAGERISNALVAMAIESLGAEAQSFTGSQAGVLTTERHGNARIVDVTPGRVREALDEGKICIVAGFQGVNKETRDVTTLGRGGSDTTAVALAAALNADVCEIYSDVDGVYTADPRIVPNAQKLEKLSFEEMLELAAVGSKILVLRSVEYARAFNVPLRVRSSYSNDPGTLIAGSMEDIPVEEAVLTGVATDKSEAKVTVLGISDKPGECAKVFRALADAEINIDMVLQNVSSVEDGTTDITFTCPRSDGRRAMEILKKLQVQGNWTNVLYDDQVGKVSLVGAGMKSHPGVTAEFMEALRDVNVNIELISTSEIRISVLIREDDLDAAARALHEQFQLGGEDEAVVYAGTGR
[1]
  2 mM Lys + Thr (desensitization degree of inhibition): 60.6%
  5 mM Lys (desensitization degree of inhibition): 66.5%
  Specific activity: 267.0 mU/mg protein
  5 mM Thr (desensitization degree of inhibition): 135.7%
[2]
  Lys--HCl: 13.41 g/L
[3]; [5]
  concerted inhibition by lysine+threonine: enhanced
  inhibition by lysine alone as compared with the wild type: equivalent to that in the wild type
  Specific activity: 15.4 mU/mg protein
[3]
  5 mM Lys + Thr (degree of desensitization of inhibition, activity-holding ratio): 17.0%
  5 mM Lys (degree of desensitization of inhibition, activity-holding ratio): 56.3%
  5 mM Thr (degree of desensitization of inhibition, activity-holding ratio): 108.1%
[4]
  thermal stability compared with the wild type: higher stability than that of the wild type

B2: Val: mutant aspartokinase 279 Ala→Val, plasmid p399AKAV (p399AKAVB) (protein, UniProt P26512 1-421, looked up, variant A279V)
Aspartokinase: B1 Aspartokinase with C279V
[1]
  2 mM Lys + Thr (desensitization degree of inhibition): 75.5%
  5 mM Lys (desensitization degree of inhibition): 60.5%
  Specific activity: 448.9 mU/mg protein
  5 mM Thr (desensitization degree of inhibition): 103.5%
[2]
  Lys--HCl: 25.02 g/L
[3]; [5]
  Specific activity: 21.8 mU/mg protein
[3]
  5 mM Lys + Thr (degree of desensitization of inhibition, activity-holding ratio): 52.3%
  5 mM Lys (degree of desensitization of inhibition, activity-holding ratio): 51.1%
  5 mM Thr (degree of desensitization of inhibition, activity-holding ratio): 98.3%
[4]
  thermal stability compared with the wild type: highest stability

B3: Phe: mutant aspartokinase 279 Ala→Phe, plasmid p399AKAF (p399AKAFB) (protein, UniProt P26512 1-421, looked up, variant A279F)
Aspartokinase: B1 Aspartokinase with C279F
[1]
  2 mM Lys + Thr (desensitization degree of inhibition): 32.4%
  5 mM Lys (desensitization degree of inhibition): 14.6%
  Specific activity: 447.7 mU/mg protein
  5 mM Thr (desensitization degree of inhibition): 105.0%
[2]
  Lys--HCl: 25.14 g/L
[3]; [5]
  inhibition by lysine alone as compared with the wild type: enhanced
  Specific activity: 18.7 mU/mg protein
[3]
  5 mM Lys + Thr (degree of desensitization of inhibition, activity-holding ratio): 18.2%
  5 mM Lys (degree of desensitization of inhibition, activity-holding ratio): 12.1%
  5 mM Thr (degree of desensitization of inhibition, activity-holding ratio): 103.0%
[4]
  thermal stability compared with the wild type: higher stability than that of the wild type

B4: Tyr: mutant aspartokinase 279 Ala→Tyr, plasmid p399AKAY (p399AKAYB) (protein, UniProt P26512 1-421, looked up, variant A279Y)
Aspartokinase: B1 Aspartokinase with C279Y
[1]
  2 mM Lys + Thr (desensitization degree of inhibition): 32.2%
  5 mM Lys (desensitization degree of inhibition): 16.1%
  Specific activity: 425.6 mU/mg protein
  5 mM Thr (desensitization degree of inhibition): 104.8%
[2]
  Lys--HCl: 25.12 g/L
[3]; [5]
  inhibition by lysine alone as compared with the wild type: enhanced
  Specific activity: 14.4 mU/mg protein
[3]
  5 mM Lys + Thr (degree of desensitization of inhibition, activity-holding ratio): 19.4%
  5 mM Lys (degree of desensitization of inhibition, activity-holding ratio): 14.4%
  5 mM Thr (degree of desensitization of inhibition, activity-holding ratio): 103.6%
[4]
  thermal stability compared with the wild type: higher stability than that of the wild type
